One molecule from US20110312897A1 (ROCKEFELLER UNIVERSITY, published 2011) can be followed below.

This assay addresses T1, cleaved H3 tail peptide (H3 22-37), methylated at K27 (not fully specified; also: K27 methylated, degree not given here, biotinylated, site not given here).
T1 construct: Mimics the H3 tail after cleavage between A21 and T22; also called cleaved peptide (amino acid residues 22-37)
T1 peptide: TKAARK(Me)SAPATGGVKK
Kind of assay: fluorescence anisotropy.

Where no end group is shown, it is not given here.

B1: chromodomain of mouse CBX7 (other, UniProt Q8VDS3 1-70, looked up)
chain: MELSAIGEQVFAVESIRKKRVRKGKVEYLVKWKGWPPKYSTWEPEEHILDPRLVMAYEEKEERDRASGYR
notes: domain: chromodomain; also called Cbx7-CD protein; chromodomain of Pc (mouse CBX7)
For the molecule B1, the “fold decrease of binding against the non-cleaved peptide (residues 18-37)” value amounted to 3 fold.
